# Columns and labels:
# Assay in all cases: pulldown
# Settings in all cases: 20 nM protein, 1.5 uM RNA pool; 20 mM HEPES pH 7.8, 70 mM KCl, 10 mM NaCl, 10% glycerol, 2 mM DTT, 0.1 ug/uL BSA; 30 min, 4 C
# [1] = biological target: T1, CBG03563 (Caenorhabditis briggsae) (UniProt A8WVC5)
# T1 sequence: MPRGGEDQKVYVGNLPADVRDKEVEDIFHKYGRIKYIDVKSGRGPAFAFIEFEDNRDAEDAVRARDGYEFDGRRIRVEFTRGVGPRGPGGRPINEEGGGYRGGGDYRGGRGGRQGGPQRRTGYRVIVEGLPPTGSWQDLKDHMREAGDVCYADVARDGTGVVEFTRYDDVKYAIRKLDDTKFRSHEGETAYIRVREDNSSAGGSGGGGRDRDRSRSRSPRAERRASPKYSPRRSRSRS
# [2] = biological target: T2, SRSF3 (Tetraodon nigroviridis) (UniProt H3C295)
# T2 sequence: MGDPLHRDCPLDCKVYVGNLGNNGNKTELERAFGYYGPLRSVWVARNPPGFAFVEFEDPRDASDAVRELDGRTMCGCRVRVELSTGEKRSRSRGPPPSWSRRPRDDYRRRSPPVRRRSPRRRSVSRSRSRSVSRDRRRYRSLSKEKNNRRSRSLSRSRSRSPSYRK
# u2af2b (Danio rerio) = u2af2b (Danio rerio) (UniProt A0ACM8Q3Q6)
# Chain of u2af2b (Danio rerio) (A0ACM8Q3Q6 entry or part of it): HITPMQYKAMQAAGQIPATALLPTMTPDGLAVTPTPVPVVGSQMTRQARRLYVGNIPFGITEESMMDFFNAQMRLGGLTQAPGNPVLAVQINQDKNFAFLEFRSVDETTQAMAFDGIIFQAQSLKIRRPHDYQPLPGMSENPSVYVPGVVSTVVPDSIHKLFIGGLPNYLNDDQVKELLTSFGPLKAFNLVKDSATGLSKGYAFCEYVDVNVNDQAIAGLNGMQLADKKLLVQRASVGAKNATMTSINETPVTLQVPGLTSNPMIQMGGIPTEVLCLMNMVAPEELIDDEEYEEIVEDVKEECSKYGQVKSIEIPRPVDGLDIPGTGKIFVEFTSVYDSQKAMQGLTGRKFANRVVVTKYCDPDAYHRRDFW
# [3] = biological target: T3, NEMVEDRAFT_v1g214798 (Nematostella vectensis) (UniProt A7SN30)
# T3 sequence: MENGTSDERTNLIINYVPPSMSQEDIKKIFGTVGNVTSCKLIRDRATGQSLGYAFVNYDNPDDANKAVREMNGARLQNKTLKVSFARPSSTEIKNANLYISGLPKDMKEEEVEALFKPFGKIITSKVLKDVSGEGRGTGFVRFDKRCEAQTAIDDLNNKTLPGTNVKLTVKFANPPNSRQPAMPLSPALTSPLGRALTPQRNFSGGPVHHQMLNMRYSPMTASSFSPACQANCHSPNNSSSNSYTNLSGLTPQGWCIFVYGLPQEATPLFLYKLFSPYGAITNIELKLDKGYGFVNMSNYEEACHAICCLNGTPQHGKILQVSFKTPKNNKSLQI
# [4] = biological target: T4, PK25912.1 V2I;D3L;F4R (Cannabis sativa) (UniProt A0A803Q7P0)
# T4 sequence: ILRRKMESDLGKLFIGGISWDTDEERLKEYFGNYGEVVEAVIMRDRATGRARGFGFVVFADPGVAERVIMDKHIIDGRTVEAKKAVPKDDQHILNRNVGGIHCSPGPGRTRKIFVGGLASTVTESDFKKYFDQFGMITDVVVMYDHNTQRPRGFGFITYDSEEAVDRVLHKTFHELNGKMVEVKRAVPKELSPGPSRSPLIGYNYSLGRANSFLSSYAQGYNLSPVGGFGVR
# [5] = biological target: T5, mei2 (Schizosaccharomyces pombe) (UniProt P08965)
# T5 sequence: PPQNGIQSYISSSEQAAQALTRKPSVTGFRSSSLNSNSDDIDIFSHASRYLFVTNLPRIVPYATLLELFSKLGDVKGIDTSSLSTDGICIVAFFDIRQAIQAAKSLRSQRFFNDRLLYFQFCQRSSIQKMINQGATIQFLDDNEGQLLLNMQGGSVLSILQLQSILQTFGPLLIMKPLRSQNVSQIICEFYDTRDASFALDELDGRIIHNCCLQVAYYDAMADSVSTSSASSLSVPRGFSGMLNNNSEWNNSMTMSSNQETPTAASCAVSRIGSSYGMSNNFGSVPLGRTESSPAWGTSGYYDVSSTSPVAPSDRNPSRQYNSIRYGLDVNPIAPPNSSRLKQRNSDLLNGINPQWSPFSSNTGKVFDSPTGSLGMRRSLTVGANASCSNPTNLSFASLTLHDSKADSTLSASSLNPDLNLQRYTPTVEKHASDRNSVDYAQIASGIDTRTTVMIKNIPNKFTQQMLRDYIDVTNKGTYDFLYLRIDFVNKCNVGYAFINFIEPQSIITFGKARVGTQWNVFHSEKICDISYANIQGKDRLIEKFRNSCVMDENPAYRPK
# [6] = biological target: T6, Smp_036270 E366G (Schistosoma mansoni) (UniProt A0A3Q0KEI3)
# T6 sequence: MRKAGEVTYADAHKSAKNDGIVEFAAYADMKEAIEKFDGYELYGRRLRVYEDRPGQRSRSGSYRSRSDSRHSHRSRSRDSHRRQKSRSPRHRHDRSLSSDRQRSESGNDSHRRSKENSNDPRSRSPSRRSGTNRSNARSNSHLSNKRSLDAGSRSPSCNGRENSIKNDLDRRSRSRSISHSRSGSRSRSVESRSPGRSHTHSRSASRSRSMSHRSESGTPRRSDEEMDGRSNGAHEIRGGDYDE
# [7] = biological target: T7, cwf2 (Schizosaccharomyces pombe) (UniProt P87126)
# T7 sequence: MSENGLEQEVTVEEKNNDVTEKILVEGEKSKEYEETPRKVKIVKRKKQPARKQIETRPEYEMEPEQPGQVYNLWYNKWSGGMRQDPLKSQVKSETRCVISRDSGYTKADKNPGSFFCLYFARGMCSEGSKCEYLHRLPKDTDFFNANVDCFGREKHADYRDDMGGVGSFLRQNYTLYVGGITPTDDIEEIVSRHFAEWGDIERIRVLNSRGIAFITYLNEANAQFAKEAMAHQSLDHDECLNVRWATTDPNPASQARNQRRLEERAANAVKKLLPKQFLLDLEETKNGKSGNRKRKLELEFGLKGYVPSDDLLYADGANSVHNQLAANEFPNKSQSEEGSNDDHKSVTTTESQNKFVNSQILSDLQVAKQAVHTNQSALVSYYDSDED
# [8] = system: T8, PK27602.1 (Cannabis sativa)
# T8 sequence: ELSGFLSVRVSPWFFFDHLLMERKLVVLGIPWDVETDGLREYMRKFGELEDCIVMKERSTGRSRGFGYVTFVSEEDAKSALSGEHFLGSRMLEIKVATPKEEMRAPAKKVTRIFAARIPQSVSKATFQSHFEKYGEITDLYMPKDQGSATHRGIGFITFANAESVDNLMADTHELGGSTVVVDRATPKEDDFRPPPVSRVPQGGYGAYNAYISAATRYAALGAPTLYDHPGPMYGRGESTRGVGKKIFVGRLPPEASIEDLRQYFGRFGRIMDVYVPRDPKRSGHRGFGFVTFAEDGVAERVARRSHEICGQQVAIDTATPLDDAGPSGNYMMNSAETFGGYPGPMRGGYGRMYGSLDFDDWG
substance,measurement,setting,value
GGACGANG [RNAcompete motif RNCMPT00433],binding signal (z-score (mean of top ten 7-mers)),[1],7.68
AACAACG [RNAcompete motif RNCMPT00419],binding signal (z-score (mean of top ten 7-mers)),[2],7.35
UUUUUC [RNAcompete motif RNCMPT00418],binding signal (z-score (mean of top ten 7-mers)),u2af2b (Danio rerio),14.4
UUNUUUU [RNAcompete motif RNCMPT00421],binding signal (z-score (mean of top ten 7-mers)),[3],11.9
UAGGAA [RNAcompete motif RNCMPT00430],binding signal (z-score (mean of top ten 7-mers)),[4],8.55
UUUUUUG [RNAcompete motif RNCMPT00413],binding signal (z-score (mean of top ten 7-mers)),[5],14.2
CGGAGG [RNAcompete motif RNCMPT00417],binding signal (z-score (mean of top ten 7-mers)),[6],13.5
AANUUG [RNAcompete motif RNCMPT00432],binding signal (z-score (mean of top ten 7-mers)),[7],17.4
GAGUGA [RNAcompete motif RNCMPT00431],binding signal (z-score (mean of top ten 7-mers)),[8],12.8

# Reference: publication PMC12990809
